Laboratory results published in patent US20060252916A1, “Modified glucagon-like peptide-1 analogs” (ELI LILLY AND COMPANY, priority 2002, published 2006).
No end group written: not given here.

Target: T1, human GLP-1 receptor (Homo sapiens, UniProt P43220)
T1 construct: expressed in transfected cells; host or cells: HEK-293 Aurora CRE-BLAM cells
Assay: In vitro potency, CRE-BLAM fluorescence assay
Format: cell-based
Details: HEK-293 Aurora CRE-BLAM cells expressing the human GLP-1 receptor; 5 hours incubation; control Val^8-GLP-1(7-37)OH
Procedure: “In vitro potency” as used herein is the measure of the ability of a peptide to activate the GLP-1 receptor in a cell-based assay. In vitro potency is expressed as the “EC50” which is the effective concentration of compound that results in 50% activity in a single dose-response experiment. For the purposes of the present invention, in vitro potency is determined using a fluorescence assay that employs HEK-293 Aurora CRE-BLAM cells that stably express the human GLP-1 receptor. These HEK-293 cells have stably integrated a DNA vector having a cAMP response element (CRE) driving expression of the β-lactamase (BLAM) gene. The interaction of a GLP-1 agonist with the receptor initiates a signal that results in activation of the cAMP response element and subsequent expression of β-lactamase. The β-lactamase CCF2/AM substrate that emits fluorescence when it is cleaved by β-lactamase (Aurora Biosciences Corp.) can then be added to cells that have been exposed to a specific amount of GLP-1 agonist to provide a measure of GLP-1 agonist potency. […]
HEK-293 Aurora CRE-BLAM cells expressing the human GLP-1 receptor are seeded at 20,000 to 40,000 cells/well/100 μl into a 96 well black clear bottom plate. […] Generally, fourteen dilutions containing from […] to 30 nanomolar GLP-1 compound were used to generate a dose response curve from which EC50 values could be determined. […]

T1 sequence (P43220 24-463): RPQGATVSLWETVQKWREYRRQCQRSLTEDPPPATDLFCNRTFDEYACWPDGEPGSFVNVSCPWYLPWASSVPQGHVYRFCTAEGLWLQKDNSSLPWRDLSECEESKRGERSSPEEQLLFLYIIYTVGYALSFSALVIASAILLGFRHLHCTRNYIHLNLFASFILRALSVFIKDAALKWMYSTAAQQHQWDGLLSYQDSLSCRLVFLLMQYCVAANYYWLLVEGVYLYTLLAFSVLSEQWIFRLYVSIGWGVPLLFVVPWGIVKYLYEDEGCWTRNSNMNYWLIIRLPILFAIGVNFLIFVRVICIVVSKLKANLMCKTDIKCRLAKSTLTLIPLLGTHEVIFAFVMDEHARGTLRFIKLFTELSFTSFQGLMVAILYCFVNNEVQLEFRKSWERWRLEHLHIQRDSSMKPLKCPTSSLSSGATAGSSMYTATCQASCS

Substance: GLP-1 compound-HSA conjugate of Example 3: Human serum albumin conjugate of the lysine-modified GLP-1 compound SEQ ID NO:22 of Example 3 (HVEGTFTSDVSSYLEEQAAKEFIAWLIKGRGK(3‑(2-pyridyldithio)propanamide)-NH2; also: conjugated to human serum albumin)
- EC50 values compared with Val^8-GLP-1(7-37)OH: about the same as the activity of Val^8-GLP-1(7-37)OH
